No end group written: not given here.
Legend:
[1] = biological target: T1, TGFβ1 (Homo sapiens, UniProt P01137); assay type: cell-based; conditions: TGFβ1 200 pg/ml; for Bioassay (% inhibition): inhibition of TGFβ1 activity, growth of MV-1-Lu cells, peptide concentration 200 μg/ml; for inhibitory activity of TGFβ1 (in words): peptide 200 μg/ml, MV-1-Lu cells
T1 construct: the mature TGFβ1 is released by another cut; purchased R&D Systems Europe Ltd., Abingdon, UK
Experimental: A line derived from mink pulmonary epithelium, MV-1-Lu, was used (CCL-64, American Type Cell Culture, Virginia, USA). The cells were grown in 162 cm^2 culture flasks (Costar Corporation, Cambridge, USA) in a stove at 37° C. and 5% CO2, until subconfluence was attained. A complete medium was used: RPMI 1640 with L-glutamine (GibcoBRL, Life Technologies Ltd., Paisley, Scotland) supplemented with 5% of foetal calf serum (FCS, Biological Industries, Kibbutz Beit Haemek, Israel), 10 mM HEPES (1M HEPES Buffer, Bio-Whittaker, Verviers, Belgium) and antibiotics (100 U/ml penicillin and 100 μ/ml streptomycin).
The MV-1-Lu cells grown as indicated above were removed from the bottom of the culture flasks using 5 ml of trypsin-EDTA (Biological Industries, Kibbutz Beit Haemek, Israel), resuspended in complete medium and centrifuged at 1500 rev/min for 8 minutes. After centrifugation the cells were resuspended in complete medium to a concentration of 50,000 cells/ml. For conducting the test, 10 ml of the cell suspension were taken and dispensed in 96-well, flat-bottom culture plates (Costar Corporation, Cambridge, USA), adding 100 μl/well, and were incubated overnight at 37° C. and 5% CO2, which permits adhesion of the cells to the bottom of the wells. […] The final concentration of FCS in the well was 2.5%. After 24 hours of incubation, 1 μCi of tritiated thymidine was added per well (25 Ci/mmol [methyl-^3H]-thymidine, Amersham Life Science, Buckinghamshire, UK) with incubation for a further 12 hours (Grubeck-Loebenstein B. et al. (1989) J. Clin. Invest. 83:764-770; Brennan F M et al. (1990) Clin. Exp. Immunol. 81:278-285).
At the end of the incubation periods the cells were removed from the bottom of the wells with trypsin-EDTA and were collected using a manual harvester (Titertek cell harvester, Skatron Instruments Inc., Sterling, USA) which ruptures the cells, collecting the DNA in nitrocellulose filters (Filter MAT 11731, Skatron Instruments Inc., Sterling, USA) where it is fixed. The filters were placed individually in 5 ml polypropylene tubes to which 4 ml of scintillation fluid was added (Biogreen-11, Reactivos Scharlau S. A., Barcelona, Spain). The activity of each tube was quantified for 90 seconds in a β LKB scintillation counter (Beta plate system, LKB, Uppsala, Sweden).
TGFβ1 is a cytokine that is able to inhibit the growth in vitro of the MV-1-Lu cell line (Grubeck-Loebenstein B. et al. (1989) J. Clin. Invest. 83:764-770; Brennan F M et al. (1990) Clin. Exp. Immunol. 81:278-285), therefore this line was used for testing the blocking effect of peptides on TGFβ1. After different combinations of media, cells and thymidine, we studied the effect of different concentrations of TGFβ1 on incorporation of [methyl-^3H]thymidine by MV-1-Lu cells in culture, for determining the most suitable conditions for the test. […]
(§1) The synthetic peptides that are potentially inhibitors of TGFβ1 activity, selected as indicated above in the section: selection of the peptides to be synthesized (both those derived from proteins that bind to TGFβ1 itself) were tested using the MV-1-Lu cell line. The selected peptides are soluble in buffered RPMI medium. The peptides were dissolved in buffered RPMI medium, free from foetal calf serum, and the following was used.
The peptides belonging to the sequence of the receptor, or complementary to the peaks of hydrophilicity of TGFβ1, were incubated for 30 minutes in the presence of this cytokine and were then combined with the cell culture. The peptides derived from the sequence of TGFβ1 were added to the cell culture prior to addition of TGFβ1, since they interact with the receptors of the cell surface. These incubations were effected in 100 μl of the same medium as was used for adding the cells. The active peptides permitted cell growth to a greater or lesser degree depending on its ability to inhibit TGFβ1.

[2] = system: TGFβ1 cell receptors; set-up: species or system human; conditions: inhibition of binding of TGFβ1 to its cell receptors, MV-1-Lu cells; peptide concentration 420 μg/ml
Excerpt: An immunofluorescence kit was used for this (Fluorokine rh TGFβ-biotin, R&D Systems Europe Ltd., Abingdon, UK). This test is based on the capacity of biotinylated TGFβ1 to bind to the cell receptors, in a specific manner, and the subsequent interaction of the biotin with fluorescein-labelled avidin, so that the signal intensity will depend on the quantity of TGFβ1 bound to the cell receptors.
The MV-1-Lu cells grown in 162 cm^2 flasks were removed using solution 1 (described previously) and were resuspended in physiological saline for centrifugation at 500×g for 5 minutes. After centrifugation, the cells were resuspended again in physiological saline at a concentration of 4×10^6 cells/ml. 25 μl of the cell suspension was added to 12×75 mm borosilicate tubes, to which was added the peptide to be tested in 40 μl of RPMI 1640 medium, giving a final concentration of 0.42 μg/μl and 10 μl of biotinylated TGFβ1. […]
At the end of the incubation period, 10 μl of fluorescein-labelled avidin was added, incubating for 30 minutes at 4° C. in darkness, after which 2 ml of a washing solution (RDF1) was added, followed by centrifugation at 500×g for 6 minutes. […] This method permits measurement of the fluorescence emitted by each cell when a laser beam is incident upon it, by means of a computer program (Lisys™ II, Becton Dickinson Immunocytometry Systems, California, USA).
Once the fields had been delimited, the percentage of cells located in each of them was calculated. […]
Peptides derived from previous syntheses, both those that were synthesized from the sequence of TGFβ1 and those from the type III receptor, were used for measuring, by flow cytometry, their capacity to inhibit the binding of TGFβ1 to the cell receptors. In these tests the cells are incubated with the peptide before adding TGFβ1-biotin, which will be detected using avidin-FITC (Material and Methods). Then the fluorescence emitted by the avidin-FITC is measured: this will be directly proportional to the quantity of TGFβ1 bound to the cells and inversely proportional to the activity of the peptide.

[3] = Solubility of the peptides in the test medium; assay type: physicochemical
Experimental: as §1
The effect of the concentration of peptide P12 on inhibition of the activity of TGFβ1 was investigated.
The effect of the concentration of peptide P54 on inhibition of the activity of TGFβ1 was investigated.

T1 sequence (P01137 279-390): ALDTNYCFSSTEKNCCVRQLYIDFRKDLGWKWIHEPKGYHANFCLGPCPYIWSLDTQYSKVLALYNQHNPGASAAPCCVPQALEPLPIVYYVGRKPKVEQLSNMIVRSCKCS

| Substance | dependence of the inhibitory activity on the peptide concentration ([1]; dose-response test) | inhibitory activity of nominal concentrations of peptide, before and after filtration ([1]; dose-response test, filtered vs unfiltered stock) | Bioassay (% inhibition) [1] [%] | inhibitory activity of TGFβ1 (in words) [1] | Cytometry (% inhibition) [2] [%] | solubility in the test medium [3] |
| --- | --- | --- | --- | --- | --- | --- |
| TSLDATMIWTMM [P54] | inhibit the activity of TGFβ1 in a manner that depends on the dose used | no measurable inhibitory activity in the filtrate | 97 | capable of inhibiting the activity of TGFβ1 almost completely | 82.3 | low solubility |
| LYNQHNPGASAAPCC (cysteine pairing not given here) [P18] | – | – | 18.2 | – | 6.5 | – |
| CysValAlaValTrpArgLysAsnAspGluAsnIleThrLeuGluThrValCys (CVAVWRKNDENITLETVC; Synthetic peptide from rat TGB beta 1 type III receptor, position 84-101) [P146] | – | – | – | not found to be active | – | – |
| HANFCLGPCPYIWSL (cysteine pairing not given here) [P11] | – | – | 40 | – | 86 | – |
| CDIHVLKQDGFSVLFTKCD (cysteine pairing not given here) [P149] | – | – | – | not found to be active | – | – |
| SNPYSAFQVDIIVDI [P106, SerAsnProTyrSerAlaPheGlnValAspIleIleValAspIle] | – | – | – | had also demonstrated activity | – | – |

— US7528226B2, “TGFβ1-inhibitor peptides” (Rojecto de Biomedicina Cima S.L., priority 1998, dated 2009)
